Measured values taken from patent publication EP2025683A1 (INSERM (Institut National de la Santé et de la Recherche …, dated 2009).

T1: human prolactin receptor (human, UniProt P16471 25-622)
T1 construct: whole, on cells; the bioassays used whole cells; also called hPRLR; human PRLR
T1 sequence (looked up): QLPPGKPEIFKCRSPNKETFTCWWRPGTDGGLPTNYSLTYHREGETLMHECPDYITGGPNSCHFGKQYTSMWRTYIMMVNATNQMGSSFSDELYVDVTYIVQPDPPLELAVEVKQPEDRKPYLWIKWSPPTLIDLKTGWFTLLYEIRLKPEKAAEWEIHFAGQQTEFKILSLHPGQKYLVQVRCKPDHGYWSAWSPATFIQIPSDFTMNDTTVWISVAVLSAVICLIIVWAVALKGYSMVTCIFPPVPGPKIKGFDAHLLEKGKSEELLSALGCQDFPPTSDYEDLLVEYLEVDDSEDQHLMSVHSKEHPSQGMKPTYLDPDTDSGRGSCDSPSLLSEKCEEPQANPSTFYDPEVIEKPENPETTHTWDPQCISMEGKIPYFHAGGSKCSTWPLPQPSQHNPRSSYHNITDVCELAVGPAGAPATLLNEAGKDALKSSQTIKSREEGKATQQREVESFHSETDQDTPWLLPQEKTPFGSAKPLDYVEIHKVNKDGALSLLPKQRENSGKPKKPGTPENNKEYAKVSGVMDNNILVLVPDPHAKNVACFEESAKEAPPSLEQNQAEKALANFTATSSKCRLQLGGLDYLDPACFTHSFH

B1: G129R-hPRL (ligand, human, UniProt P01236 29-227, looked up)
chain: LPICPGGAARCQVTLRDLFDRAVVLSHYIHNLSSEMFSEFDKRYTHGRGFITKAINSCHTSSLATPEDKEQAQQMNQKDFLSLIVSILRSWNEPLYHLVTEVRGMQEAPEAILSKAVEIEEQTKRLLERMELIVSQVHPETKENEIYPVWSGLPSLQMADEESRLSAYYNLLHCLRRDSHKIDNYLKLLKCRIIHNNNC
notes: mature
B2: G129D-hPRL (ligand, human, UniProt P01236 29-227, looked up)
chain: LPICPGGAARCQVTLRDLFDRAVVLSHYIHNLSSEMFSEFDKRYTHGRGFITKAINSCHTSSLATPEDKEQAQQMNQKDFLSLIVSILRSWNEPLYHLVTEVRGMQEAPEAILSKAVEIEEQTKRLLEDMELIVSQVHPETKENEIYPVWSGLPSLQMADEESRLSAYYNLLHCLRRDSHKIDNYLKLLKCRIIHNNNC
B3: G129L-hPRL (ligand, human, UniProt P01236 29-227, looked up)
chain: LPICPGGAARCQVTLRDLFDRAVVLSHYIHNLSSEMFSEFDKRYTHGRGFITKAINSCHTSSLATPEDKEQAQQMNQKDFLSLIVSILRSWNEPLYHLVTEVRGMQEAPEAILSKAVEIEEQTKRLLELMELIVSQVHPETKENEIYPVWSGLPSLQMADEESRLSAYYNLLHCLRRDSHKIDNYLKLLKCRIIHNNNC
B4: G129N-hPRL (ligand, human, UniProt P01236 29-227, looked up)
chain: LPICPGGAARCQVTLRDLFDRAVVLSHYIHNLSSEMFSEFDKRYTHGRGFITKAINSCHTSSLATPEDKEQAQQMNQKDFLSLIVSILRSWNEPLYHLVTEVRGMQEAPEAILSKAVEIEEQTKRLLENMELIVSQVHPETKENEIYPVWSGLPSLQMADEESRLSAYYNLLHCLRRDSHKIDNYLKLLKCRIIHNNNC
B5: G129V-hPRL (ligand, human, UniProt P01236 29-227, looked up)
chain: LPICPGGAARCQVTLRDLFDRAVVLSHYIHNLSSEMFSEFDKRYTHGRGFITKAINSCHTSSLATPEDKEQAQQMNQKDFLSLIVSILRSWNEPLYHLVTEVRGMQEAPEAILSKAVEIEEQTKRLLEVMELIVSQVHPETKENEIYPVWSGLPSLQMADEESRLSAYYNLLHCLRRDSHKIDNYLKLLKCRIIHNNNC
B6: G129Y-hPRL (ligand, human, UniProt P01236 29-227, looked up)
chain: LPICPGGAARCQVTLRDLFDRAVVLSHYIHNLSSEMFSEFDKRYTHGRGFITKAINSCHTSSLATPEDKEQAQQMNQKDFLSLIVSILRSWNEPLYHLVTEVRGMQEAPEAILSKAVEIEEQTKRLLEYMELIVSQVHPETKENEIYPVWSGLPSLQMADEESRLSAYYNLLHCLRRDSHKIDNYLKLLKCRIIHNNNC
B7: G129P-hPRL (ligand, human, UniProt P01236 29-227, looked up)
chain: LPICPGGAARCQVTLRDLFDRAVVLSHYIHNLSSEMFSEFDKRYTHGRGFITKAINSCHTSSLATPEDKEQAQQMNQKDFLSLIVSILRSWNEPLYHLVTEVRGMQEAPEAILSKAVEIEEQTKRLLEPMELIVSQVHPETKENEIYPVWSGLPSLQMADEESRLSAYYNLLHCLRRDSHKIDNYLKLLKCRIIHNNNC
B8: G129F-hPRL (ligand, human, UniProt P01236 29-227, looked up)
chain: LPICPGGAARCQVTLRDLFDRAVVLSHYIHNLSSEMFSEFDKRYTHGRGFITKAINSCHTSSLATPEDKEQAQQMNQKDFLSLIVSILRSWNEPLYHLVTEVRGMQEAPEAILSKAVEIEEQTKRLLEFMELIVSQVHPETKENEIYPVWSGLPSLQMADEESRLSAYYNLLHCLRRDSHKIDNYLKLLKCRIIHNNNC

Biological target: T1, human prolactin receptor
Experiment: displacement of [125I]-hPRL, homogenates of HEK 293 cells stably expressing hPRLR (HL-5 clone)

Row | Molecule | IC50 [nM] | affinity relative to WT hPRL
1 | B1 | 19 | ~1 order of magnitude lower than WT hPRL

Biological target: T1, human prolactin receptor
Experiment: cell-based or functional assay

Row | Molecule | Agonism Ba/F-LP cells (% of hPRL max activity) (% of hPRL max activity) | Antagonism HL-5 cells IC50 [nM] | Agonism Ba/F-LP cells (% of hPRL max activity)
2 | Del1-9-G129R-hPRL (from UniProt P01236 29-227) (ligand) | 8.3 | 120 | –
3 | B2 | – | 340 | 23.6 % of hPRL max activity
4 | B3 | – | 160 | 16.8 % of hPRL max activity
5 | B4 | – | 130 | 26.4 % of hPRL max activity
6 | B1 | – | 200 | 45.5 % of hPRL max activity
7 | B5 | – | 110 | 14.2 % of hPRL max activity
8 | B6 | – | 190 | 24.3 % of hPRL max activity
9 | B7 | – | 340 | 90.4 % of hPRL max activity
10 | B8 | – | 110 | 19.1 % of hPRL max activity
